Laboratory results reported in paper PMC9934059, “Characterization of a glycan-binding complex of minor pilins completes the analysis of Streptococcus sanguinis type 4 pili subunits” (Proceedings of the National Academy of Sciences of the …, 2023).

Experiments:
[1] = biological target: 6His–PilC (Streptococcus sanguinis 2908); test: ITC; MicroCal ITC200; average ± SD of three (mutants: 2 to 3) independent experiments
6His–PilC = test: ITC; conditions: parent: est. 1.0; read off a plot
PilC [2] = biological target: T1, PilC (Streptococcus sanguinis, UniProt A0A0B7GRV8, K358A); test: ITC of mutant, KD ratio to WT (reduced affinity); assay type: binding
T1 construct: PilCΔpilin (lacking the pilin moiety), strain 2908
T1 sequence (A0A0B7GRV8 122-486 K358A): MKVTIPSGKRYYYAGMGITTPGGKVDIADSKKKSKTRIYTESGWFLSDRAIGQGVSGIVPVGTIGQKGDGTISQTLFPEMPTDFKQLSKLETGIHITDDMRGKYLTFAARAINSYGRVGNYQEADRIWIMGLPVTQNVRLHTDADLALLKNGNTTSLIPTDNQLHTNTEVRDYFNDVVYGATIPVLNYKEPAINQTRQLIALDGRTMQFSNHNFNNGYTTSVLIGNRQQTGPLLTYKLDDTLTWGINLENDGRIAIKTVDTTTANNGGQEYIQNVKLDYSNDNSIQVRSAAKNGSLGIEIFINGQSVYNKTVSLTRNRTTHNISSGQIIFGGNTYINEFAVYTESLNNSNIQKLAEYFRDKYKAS

PilC [3] = biological target: T2, PilC (Streptococcus sanguinis, UniProt A0A0B7GRV8); test: ITC (three independent experiments); supported by glycan microarray; assay type: binding
T2 construct: 6His–PilCΔpilin (lacking the pilin moiety; Ig-like and lectin modules), strain 2908

[4] = biological target: 6His–PilA (Streptococcus sanguinis 2908); test: SEC-MALS; ÄKTA Prime, S200 10/300 GL column, Wyatt MALS detector; 6His–PilA and 6His–PilC separately and after mixing equimolar amounts
[5] = biological target: 6His–PilC (Streptococcus sanguinis 2908); test: as above

PilA_(T87A) (from UniProt A0A0B7GNW3 33-164) (domain or fragment)
percent of the wild-type (WT) binding (KD ratio to the WT) [1]: 38.3%

6His–PilA A68S
ratio to parent (6His–PilC): 0.87

6His–PilA K85A
ratio to parent (6His–PilC): 0.98

CC(=O)N[C@H]1[C@H]([C@H](O)[C@H](O)CO)O[C@@](O[C@H]2[C@@H](O)[C@@H](CO)O[C@@H](O[C@H]3[C@H](O)[C@@H](O)C(O)O[C@@H]3CO)[C@@H]2O)(C(=O)O)C[C@@H]1O (stereo partly drawn) [3′-SL, 3′-sialyllactose]
% of WT binding (PilC [2]): 39.3 ± 1.4 % of WT binding
Kd (PilC [3]): 79.1 ± 0.36 µM

CC(=O)N[C@H]1[C@H]([C@H](O)[C@H](O)CO)O[C@@](O[C@H]2[C@@H](O)[C@@H](CO)O[C@@H](O[C@H]3[C@H](O)[C@@H](NC(C)=O)C(O)O[C@@H]3CO)[C@@H]2O)(C(=O)O)C[C@@H]1O (stereo partly drawn) [3′-SLN, 3′-sialyl-N-acetyllactosamine]
Kd (PilC [3]): 144 ± 7.36 µM

6His–PilA (domain or fragment)
Kd [1]: 0.0238 µM
stoichiometry N [4]: 2
stoichiometry N [5]: 1
